Experimental data: article PMC9820531, “Porcine Relaxin but Not Serelaxin Shows Residual Bioactivity after In Vitro Simulated Intestinal Digestion—Clues for the Development of New Relaxin Peptide Agonists Suitable for Oral Delivery” (International Journal of Molecular Sciences, 2022)

Tests used:
RXFP1 relaxin receptor [1] = molecular target: T1, RXFP1 relaxin receptor (Homo sapiens, UniProt Q9HBX9); test: cAMP response by THP-1 cells to SIF digestion products; format: cell-based; conditions: SIF: pancreatin 500 μg/mL, CaCl2, pH 7, 37 °C, peptide 1.12 μM; digestion products tested at equivalent of 100 ng/mL on THP-1 cells, 15 min; read-out cAMP
T1 construct: a marked, significant rise of cAMP in RXFP-1-expressing THP-1 cells; endogenous in cells; host or cells: THP-1 human monocytic cells (ECACC)
T1 sequence (Q9HBX9 1-757): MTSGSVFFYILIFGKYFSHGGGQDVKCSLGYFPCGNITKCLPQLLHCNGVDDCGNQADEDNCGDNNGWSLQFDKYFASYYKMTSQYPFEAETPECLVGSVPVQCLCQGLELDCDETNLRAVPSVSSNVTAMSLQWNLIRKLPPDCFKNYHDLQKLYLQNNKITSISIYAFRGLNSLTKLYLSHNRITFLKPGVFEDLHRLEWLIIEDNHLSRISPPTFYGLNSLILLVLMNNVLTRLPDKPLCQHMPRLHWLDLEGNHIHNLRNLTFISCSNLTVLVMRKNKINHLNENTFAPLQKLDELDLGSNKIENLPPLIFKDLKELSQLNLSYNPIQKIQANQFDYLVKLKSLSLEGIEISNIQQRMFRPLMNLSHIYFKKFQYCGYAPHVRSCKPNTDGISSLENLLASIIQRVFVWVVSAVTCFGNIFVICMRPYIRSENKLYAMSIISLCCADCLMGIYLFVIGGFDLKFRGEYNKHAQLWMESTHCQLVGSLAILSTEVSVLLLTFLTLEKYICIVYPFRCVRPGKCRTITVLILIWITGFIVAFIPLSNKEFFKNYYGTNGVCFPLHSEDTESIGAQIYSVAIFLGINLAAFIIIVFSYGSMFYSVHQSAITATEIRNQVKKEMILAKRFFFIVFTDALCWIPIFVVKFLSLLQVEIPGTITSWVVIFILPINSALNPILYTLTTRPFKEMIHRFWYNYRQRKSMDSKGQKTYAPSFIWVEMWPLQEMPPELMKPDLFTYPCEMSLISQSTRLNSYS
Protocol: The effects of duodenal enzyme digestion on the noted serelaxin and pRLX preparations was carried out by addition of a simulated intestinal fluid (SIF), composed of a solution of pancreatin (500 μg/mL), CaCl2 0.75 M (0.1 v/v), pH adjusted to 7 adding dropwise an aqueous solution of NaOH 0.1 M to pRLX and serelaxin solutions. In particular: 0.5 mg/mL aqueous solution of pRLX (MW 5918, 0.084 mM) was added to SIF in a 50 mL Falcon, mixing in a 37 °C bath, to a final pRLX concentration 1.12 μM; 0.2 mL of this solution were sampled and quenched by pH adjusting (0.1 M HCl), at the following times: t = 0”/10”/20”/30”/60”/120”/600”/1800”. […]
Human monocytic THP-1 cells (European Collection of Cell Cultures ECACC, Salisbury, UK) were cultured in suspension in RPMI medium containing 10% fetal calf serum, 250 U/mL penicillin G and 250 μg/mL streptomycin in a 5% CO2 atmosphere at 37 °C. […] Measurements of cAMP were determined by the chemiluminescent HitHunterXP™ cAMP II assay (DiscoverX, Birmingham, UK). […] Since the standard curve was sigmoidal, nonlinear regression was used to extrapolate unknown experimental cAMP values, expressed as nmol/L, according to the manufacturer’s instructions. […] Finally, the values of cAMP in each experimental sample were normalized by the amount of proteins, measured by the micro-BCATM Protein Assay Kit (Pierce, IL, USA) method, and expressed as mg/mL.

[2] = set-up: method as in PMID 8257492; conditions: in vivo; cited from earlier work
[3] = test system: acute heart failure patients; set-up: method as in PMID 31433919, PMID 31886953; conditions: IV infusion 30 μg/kg/day; cited from earlier work
RXFP-1 receptor = conditions: serelaxin versus pRLX, similar cellular models; cited from earlier work
RXFP1 relaxin receptor [4] = molecular target: T1, RXFP1 relaxin receptor; test: cAMP response by THP-1 cells to intact relaxins; format: cell-based; conditions: intact peptide 100 ng/mL, 15 min stimulation, IBMX 100 μM, forskolin 10^−4 M as maximum, chemiluminescent HitHunterXP cAMP II assay, triplicate points, two independent experiments
Protocol: Human monocytic THP-1 cells (European Collection of Cell Cultures ECACC, Salisbury, UK) were cultured in suspension in RPMI medium containing 10% fetal calf serum, 250 U/mL penicillin G and 250 μg/mL streptomycin in a 5% CO2 atmosphere at 37 °C. Aliquots containing 6 × 10^5 THP-1 cells in 1 mL PBS were placed in a 24-well plate, added with IBMX (100 μM) to prevent cAMP catabolism, and then incubated with intact serelaxin (100 ng/mL), pRLX (100 ng/mL) or equivalent solutions of their digestion by-products. According to previous studies, cAMP assay was carried out 15 min after addition of the stimuli, i.e., in the midst of the second, sustained cAMP surge upon RXFP1 stimulation. Measurements of cAMP were determined by the chemiluminescent HitHunterXP™ cAMP II assay (DiscoverX, Birmingham, UK). The standard curve was performed in duplicate, and the experimental points in triplicate. Since the standard curve was sigmoidal, nonlinear regression was used to extrapolate unknown experimental cAMP values, expressed as nmol/L, according to the manufacturer’s instructions. Two independent experiments were performed. For positive control, the adenylate cyclase activator forskolin (10^−4 M) was used. Finally, the values of cAMP in each experimental sample were normalized by the amount of proteins, measured by the micro-BCATM Protein Assay Kit (Pierce, IL, USA) method, and expressed as mg/mL.

In the case of serelaxin, the “SIF exposure time at which cAMP levels dropped down to levels of unstimulated control cells” value (RXFP1 relaxin receptor [1]) is given as 120 s, the “SIF exposure time at which the decrease in cAMP production became fully manifest and statistically significant” value (RXFP1 relaxin receptor [1]) is given as 60 s and the half-life [2] is given as “about 2 h”. The “effects on length of hospitalization, occurrence of cardiovascular death, and disease relapses requiring re-hospitalization in comparison with placebo” value [3] was “no substantial effects”, the “affinity for the RXFP-1 receptor relative to the other relaxin” value (RXFP-1 receptor) was “higher affinity” and the “intracellular cAMP increase as % of the maximal cAMP surge induced by forskolin” value (RXFP1 relaxin receptor [4]) was 88.6%.
